Reference: article PMC12412652 (2025)

T1: BFL-1 (UniProt Q16548 1-175, biotin)
T1 chain: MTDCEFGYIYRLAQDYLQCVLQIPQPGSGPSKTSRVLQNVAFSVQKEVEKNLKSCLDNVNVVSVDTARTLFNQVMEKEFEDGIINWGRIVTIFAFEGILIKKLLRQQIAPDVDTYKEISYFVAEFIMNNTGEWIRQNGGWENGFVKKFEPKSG

T2: MBP-BAK 16-186, biotinylated (Avi tag, 6-histidine tag) (human, UniProt Q16611 16-186, biotin on the Avi tag (enzymatic, BirA))
T2 chain: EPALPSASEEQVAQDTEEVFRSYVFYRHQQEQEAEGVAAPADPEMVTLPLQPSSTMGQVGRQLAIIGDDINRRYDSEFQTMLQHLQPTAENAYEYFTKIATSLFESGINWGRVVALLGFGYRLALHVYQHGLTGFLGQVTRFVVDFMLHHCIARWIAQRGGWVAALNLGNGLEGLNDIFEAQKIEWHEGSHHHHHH


What was measured:
Test in all cases: BLI
BCL-2 = BCL-2 (UniProt P10415 1-239, biotin)
BFL-1 = molecular target: T1, BFL-1
[1] = molecular target: T2, MBP-BAK 16-186, biotinylated (Avi tag, …)
[2] = molecular target: MBP-BAK 16-186, biotinylated (Avi tag, 6-histidine tag) (human, UniProt Q16611 16-186, biotin on the Avi tag (enzymatic, BirA)); remark: listed apart in the source
[3] = molecular target: MBP-BAX 1-166 C62S C126S, biotinylated (Avi tag, 6-histidine tag) (human, UniProt Q07812 1-166, C62S | C126S, biotin on the Avi tag (enzymatic, BirA))
Sequence of MBP-BAX 1-166 C62S C126S, biotinylated (Avi tag, 6-histidine tag) (Q07812 1-166 C62S/C126S): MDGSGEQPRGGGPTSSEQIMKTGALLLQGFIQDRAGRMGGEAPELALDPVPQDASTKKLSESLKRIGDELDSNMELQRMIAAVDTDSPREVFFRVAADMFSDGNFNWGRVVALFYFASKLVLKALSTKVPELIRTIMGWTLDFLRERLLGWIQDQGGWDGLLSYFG

Sequence of BCL-2 (P10415 1-207): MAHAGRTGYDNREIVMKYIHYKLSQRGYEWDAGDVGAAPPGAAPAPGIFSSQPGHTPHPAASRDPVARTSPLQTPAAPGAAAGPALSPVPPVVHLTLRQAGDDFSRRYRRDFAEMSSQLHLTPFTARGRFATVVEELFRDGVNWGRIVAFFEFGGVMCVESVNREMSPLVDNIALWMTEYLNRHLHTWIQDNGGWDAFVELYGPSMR

Kd (BCL-2) | Kd (BFL-1) | Kd [1] | Kd [2] | Kd [3] | Binder
2300 nM | 300 nM | > 9000 nM | – | – | αBAX2 (designed binder) GADPKKVLDKARDQAENRVRELRQKLTELYKEARKLDLTQEERRKLIKRYKAAMNEAIKDIHEAIEQAKEEADKLKDAGLVNEQQLKELKQRLNEKALAAAFRASGDTWHARRKLQYG
3500 nM | – | – | > 20000 nM | 1.43 nM | αBAX1 (designed binder) GADPKKVLDKARDQAENRVRELAQKLEELYKEARKLDLTQEERRKLEKRYKAAMEEAIKDIHEAIEQAKEEADKLKDAGLVNEQQLKELKQRLNELAIAAAFRASGDTIEFRRKLQYG
